How the values were obtained:
[1] = molecular target: PE-labeled DR1 tetramers loaded with FVIII-2191-2220 (human) (UniProt P01903); assay: flow cytometry, DR1 tetramer staining of transduced naïve CD4 T cells
[2] = molecular target: PE-labeled DR1 tetramers loaded with FVIII-2191-2220 (human) (UniProt P01903); assay: flow cytometry, PE-labeled DR1 tetramer staining of peptide-expanded transduced T effectors
[3] = molecular target: PE-labeled DR1 tetramers loaded with FVIII-2191-2220 (human) (UniProt P01903); assay: flow cytometry, DR1 tetramer staining of transduced CD4 T cells
[4] = molecular target: FVIII-2191-2220 presented on HLA-DR1 by irradiated DR1-PBMCs (human); assay: cell-based or functional assay

percent tetramer+ of the total CD4 population [1]: 0.2%
percent tetramer+ of the transduced cells [1]: < 5%
percent tetramer+ [2]: 24%
fold tetramer staining intensity over non-specific tetramer staining [3]: > 10 fold
expansion of GFP cells against culture with pOVA [4]: 50 fold
proliferation of GFP cells (dye dilution, 4 days) [4]: 100%
proportion of GFP cells after culture with FVIII-2191-2220 [4]: 61 to 81%
B1: FVIII C2-specific human T cell receptor (TCR17195) (TCR)
chain: RQVARVIVFLTLSTLSLAKTTQPISMDSYEGQEVNITCSHNNIATNDYITWYQQFPSQGPRFIIQGYKTKVTNEVASLFIPADRKSSTLSLPRVSLSDTAVYYCLVGDAPNSGNTPLVFGKGTRLSVIANIQNPDPAVYQLRDSKSSDKSVCLFTDFDSQTNVSQSKDSDVYITDKTVLDMRSMDFKSNSAVAWSNKSDFACANAFNNSIIPEDTFFPSPESSCDVKLVEKSFETDTNLNFQNLSVIGFRILLLKVAGFNLLMTLRLWSSRAKRGSGATNFSLLKQAGDVEENPGPMLLLLLLLGPGSGLGAVVSQHPSRVICKSGTSVKIECRSLDFQATTMFWYRQFPKKSLMLMATSNEGSKATYEQGVEKDKFLINHASLTLSTLTVTSAQPEDSSFYICSAHTRANYGYTFGSGTRLTVVEDLNKVFPPEVAVFEPSEAEISHTQKATLVCLATGFFPDHVELSWWVNGKEVHSGVSTDPQPLKEQPALNDSRYCLSSRLRVSATFWQNPRNHFRCQVQFYGLSENDEWTQDRAKPVTQIVSAEAWGRADCGFTSVSYQQGVLSATILYEILLGKATLYAVLVSALVLMAMVKRKDF

Source: patent US20190203174A1
